Earlier results as cited in US5814460A, “Method for generating and screening useful peptides” (Diatide, Inc., priority 1995, dated 1998).
Where two headings read alike, the source gives them in different places.

Assays:
streptavidin = target: T1, streptavidin (Streptomyces avidinii, UniProt P22629); details: read-out: Kd of streptavidin complex
T1 construct: purchased Sigma Chemical Company

[1] = target: fibrinogen receptor (GpIIb IIIa) (Homo sapiens, UniProt P05106+P08514)
Angiotensin II Receptor = details: Table 6
fibrin polymerization = fibrin polymerization (Homo sapiens, UniProt P02679); details: literature statement
human fibrinogen = human fibrinogen (Homo sapiens, UniProt P02679); details: read-out: affinities for human fibrinogen
Porcine PLA2 = Porcine PLA2 (Sus scrofa, UniProt P00592); details: Table 6
Pepsin (hum.) = Pepsin (hum.) (Homo sapiens, UniProt P0DJD7); details: Table 6
[2] = target: Urokinase Receptor (hum.) (Homo sapiens, UniProt Q03405); details: Table 6
CD4 = CD4 (Homo sapiens, UniProt P01730); details: Table 6
Gastricsin (hum.) = target: T2, Gastricsin (hum.) (Homo sapiens, UniProt P20142); details: Table 6
T2 sequence (P20142 60-388): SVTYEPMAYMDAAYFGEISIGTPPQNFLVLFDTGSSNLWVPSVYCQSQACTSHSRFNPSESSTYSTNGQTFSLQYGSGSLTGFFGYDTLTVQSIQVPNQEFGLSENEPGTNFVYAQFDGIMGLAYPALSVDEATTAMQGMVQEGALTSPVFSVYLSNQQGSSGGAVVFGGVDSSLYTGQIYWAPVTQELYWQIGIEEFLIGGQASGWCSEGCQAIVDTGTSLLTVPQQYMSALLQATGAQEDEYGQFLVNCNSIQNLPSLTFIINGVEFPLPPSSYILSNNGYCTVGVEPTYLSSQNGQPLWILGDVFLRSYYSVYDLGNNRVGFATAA

Calmodulin = Calmodulin (Homo sapiens, UniProt P0DP23); details: Table 6
[3] = target: Fibronectin (rat) (human); details: Table 6
[4] = Table 6, target GpIIb IIa, read-out: Kd

Chain of fibrin polymerization (P02671 20-629 partner limits assumed): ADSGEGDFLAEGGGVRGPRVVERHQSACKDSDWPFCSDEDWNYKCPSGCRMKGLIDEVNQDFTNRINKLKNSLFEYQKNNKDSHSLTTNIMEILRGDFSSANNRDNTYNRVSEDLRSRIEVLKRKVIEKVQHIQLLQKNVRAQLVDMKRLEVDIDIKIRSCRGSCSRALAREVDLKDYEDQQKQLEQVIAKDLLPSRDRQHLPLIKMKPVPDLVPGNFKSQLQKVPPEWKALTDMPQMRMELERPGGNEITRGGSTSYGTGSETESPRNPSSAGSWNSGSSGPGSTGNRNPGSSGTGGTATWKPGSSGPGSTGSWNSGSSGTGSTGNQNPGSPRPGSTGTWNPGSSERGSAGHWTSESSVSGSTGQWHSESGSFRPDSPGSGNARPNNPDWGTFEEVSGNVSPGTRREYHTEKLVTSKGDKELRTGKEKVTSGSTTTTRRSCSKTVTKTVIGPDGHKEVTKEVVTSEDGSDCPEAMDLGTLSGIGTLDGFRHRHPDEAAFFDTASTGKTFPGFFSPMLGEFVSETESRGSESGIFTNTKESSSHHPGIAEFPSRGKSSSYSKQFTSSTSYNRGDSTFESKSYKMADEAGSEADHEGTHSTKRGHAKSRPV
Chain of fibrin polymerization (P02675 31-491 partner): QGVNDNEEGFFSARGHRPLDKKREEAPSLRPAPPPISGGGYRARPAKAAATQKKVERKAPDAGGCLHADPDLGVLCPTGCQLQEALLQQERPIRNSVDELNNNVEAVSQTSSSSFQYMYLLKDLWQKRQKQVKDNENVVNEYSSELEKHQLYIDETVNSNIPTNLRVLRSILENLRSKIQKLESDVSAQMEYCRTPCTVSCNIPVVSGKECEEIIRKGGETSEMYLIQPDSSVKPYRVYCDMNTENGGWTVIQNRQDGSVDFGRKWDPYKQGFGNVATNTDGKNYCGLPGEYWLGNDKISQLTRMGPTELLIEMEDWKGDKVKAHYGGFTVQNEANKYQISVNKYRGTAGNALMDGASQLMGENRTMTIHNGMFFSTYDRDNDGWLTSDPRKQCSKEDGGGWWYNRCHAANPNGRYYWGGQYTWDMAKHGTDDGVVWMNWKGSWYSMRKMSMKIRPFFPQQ
Chain of fibrin polymerization (P02679 27-433 limits assumed): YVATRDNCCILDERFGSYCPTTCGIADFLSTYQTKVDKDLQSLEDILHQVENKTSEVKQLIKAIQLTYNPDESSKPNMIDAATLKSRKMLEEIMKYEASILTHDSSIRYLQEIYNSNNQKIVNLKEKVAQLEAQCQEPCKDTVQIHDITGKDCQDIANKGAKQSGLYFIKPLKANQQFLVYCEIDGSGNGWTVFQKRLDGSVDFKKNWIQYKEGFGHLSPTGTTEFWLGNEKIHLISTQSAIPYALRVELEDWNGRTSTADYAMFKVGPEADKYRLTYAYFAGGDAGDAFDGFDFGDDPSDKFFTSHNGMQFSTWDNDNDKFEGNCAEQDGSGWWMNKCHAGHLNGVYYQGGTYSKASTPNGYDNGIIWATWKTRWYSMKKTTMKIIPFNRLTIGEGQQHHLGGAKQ
Chain of human fibrinogen (P02671 20-629 partner limits assumed): as the sequence (P02671 20-629 partner limits assumed) above
Chain of human fibrinogen (P02675 31-491 partner): as the sequence (P02675 31-491 partner) above
Chain of human fibrinogen (P02679 27-433 limits assumed): as the sequence (P02679 27-433 limits assumed) above
Chain of Pepsin (hum.) (P0DJD7 63-388): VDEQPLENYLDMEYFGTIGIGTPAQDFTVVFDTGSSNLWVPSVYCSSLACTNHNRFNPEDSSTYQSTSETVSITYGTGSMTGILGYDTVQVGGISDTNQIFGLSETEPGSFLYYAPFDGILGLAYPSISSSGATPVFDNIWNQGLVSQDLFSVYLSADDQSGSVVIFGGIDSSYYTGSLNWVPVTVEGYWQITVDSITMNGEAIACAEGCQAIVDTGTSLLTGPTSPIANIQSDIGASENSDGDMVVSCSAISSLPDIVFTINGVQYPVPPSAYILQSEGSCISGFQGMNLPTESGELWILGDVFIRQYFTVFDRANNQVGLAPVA
Chain of Porcine PLA2 (P00592 23-146): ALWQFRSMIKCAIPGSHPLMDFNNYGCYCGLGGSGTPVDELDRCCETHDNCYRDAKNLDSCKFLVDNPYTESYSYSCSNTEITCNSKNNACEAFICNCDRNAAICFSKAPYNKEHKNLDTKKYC
T1 sequence (P22629 25-183): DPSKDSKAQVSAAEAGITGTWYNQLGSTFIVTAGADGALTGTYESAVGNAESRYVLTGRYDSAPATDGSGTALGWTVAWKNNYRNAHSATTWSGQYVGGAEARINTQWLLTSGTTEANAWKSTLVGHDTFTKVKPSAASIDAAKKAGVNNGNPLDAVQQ
Chain of Fibronectin (rat) (human) (P04937 1540-1633 limits assumed): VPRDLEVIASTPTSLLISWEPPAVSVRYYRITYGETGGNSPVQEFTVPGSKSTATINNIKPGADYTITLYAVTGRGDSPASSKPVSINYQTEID
Chain of Urokinase Receptor (hum.) (Q03405 23-335): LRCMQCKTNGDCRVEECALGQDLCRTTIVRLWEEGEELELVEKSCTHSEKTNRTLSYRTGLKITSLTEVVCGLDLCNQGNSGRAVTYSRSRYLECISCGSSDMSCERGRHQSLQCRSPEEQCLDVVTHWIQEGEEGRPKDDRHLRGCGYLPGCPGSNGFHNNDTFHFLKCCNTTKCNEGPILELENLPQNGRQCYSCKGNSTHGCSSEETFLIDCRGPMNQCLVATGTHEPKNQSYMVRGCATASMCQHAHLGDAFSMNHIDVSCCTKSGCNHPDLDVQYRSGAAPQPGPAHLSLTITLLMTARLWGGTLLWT

For `N=C1N[C@H]2[C@H](CS[C@H]2CCCCC(=O)O)N1` [imminobiotin], the Kd (streptavidin) is listed as about 0.01 µM.
For Arg-Gly-Asp-Trp (RGDW), the Kd [1, 4] is listed as 1 µM and the Kd ([1]; example of a lead peptide, read-out: affinity (Kd) for fibrinogen receptor) is listed as 5 µM.
In the case of EGVYVHPV, the Kd (Angiotensin II Receptor) is given as 0.1 µM.
For GPRP, the “inhibition of fibrin polymerization” value (fibrin polymerization) is given as “inhibit fibrin polymerization”.
For “GPRV: synthetic peptide beginning with GPR that binds fibrinogen”, the Kd (human fibrinogen) is given as 100 µM and the “inhibition of fibrin polymerization” value (fibrin polymerization) is given as “inhibit fibrin polymerization”.
For “GRGDSP: lead peptide (Fb) for GpIIb IIIa”, the Kd [1, 4] is given as 1 µM.
In the case of Gly-Pro-Arg [GPR], the Kd (human fibrinogen) is listed as 50 µM and the “inhibition of fibrin polymerization” value (fibrin polymerization) is listed as “inhibit fibrin polymerization”.
In the case of MLFILIKRSRHF, the Kd (Porcine PLA2) is listed as 10 µM.
In the case of “RGDY: RGD containing peptide binding GpIIb IIIa”, the Kd [1, 4] is given as 1 µM.
In the case of RIFLKRMPSIR, the Kd (Pepsin (hum.)) is listed as 1 µM.
In the case of “TCVXNKYFSNIHW: lead peptide (urokinase) for urokinase receptor”, the Kd [2] is listed as 1 µM.
For TNYT: lead peptide for CD4, the Kd (CD4) is given as 1 µM.
In the case of TTFKRIFLKRMPS, the Kd (Gastricsin (hum.)) is given as 1 µM.
For VAITVLVK, the Kd (Calmodulin) is listed as 1 µM.
For “WTVPTA: lead peptide, antisense of GAVSTA RGD sequence, for fibronectin”, the Kd [3] is listed as 1 µM.
